Earlier results as cited in article PMC8569200.

Molecular target: CD137 (Homo sapiens) (UniProt Q07011)
Assay: SPR

Sequence of CD137 (Homo sapiens) (Q07011 24-255): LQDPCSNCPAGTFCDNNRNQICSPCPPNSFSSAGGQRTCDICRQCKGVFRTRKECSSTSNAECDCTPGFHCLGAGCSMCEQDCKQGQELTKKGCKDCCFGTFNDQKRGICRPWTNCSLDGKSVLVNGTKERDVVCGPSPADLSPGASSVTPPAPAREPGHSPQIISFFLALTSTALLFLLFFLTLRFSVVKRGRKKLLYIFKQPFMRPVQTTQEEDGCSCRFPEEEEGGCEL
Sequence of CD137L (P41273 whole entry): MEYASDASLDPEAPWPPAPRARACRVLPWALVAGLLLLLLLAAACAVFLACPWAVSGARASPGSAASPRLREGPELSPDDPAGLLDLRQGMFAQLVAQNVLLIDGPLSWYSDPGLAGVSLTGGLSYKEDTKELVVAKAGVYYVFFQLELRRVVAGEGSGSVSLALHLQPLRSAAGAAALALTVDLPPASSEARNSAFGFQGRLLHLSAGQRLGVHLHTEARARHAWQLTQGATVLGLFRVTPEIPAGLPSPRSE

Substance: CD137L (from UniProt P41273)
- Kd: 680 nM
